Columns and labels:
[1] = test system: wild-type and variant SNAP-GIPR; assay: Single-concentration GIP cAMP response by HTRF in AD293 cells; assay type: cell-based, human; settings: Fig S3F, HTRF, mean;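 further: ratio to experiment-wide average response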
Description: All variants were tested in parallel on each occasion to control for transfection efficiency differences between experiments.

[2] = test system: wild-type and variant SNAP-GIPR; assay: cADDis cAMP imaging in AD293 cells, ensemble, expression-matched and per decile; assay type: cell-based, human; settings: Fig S3F, cADDis, mean;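 further: Ensemble cells as % of IBMX/FSK response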
In short: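 Surface GIPR and cAMP are measured in individual AD293 cells coexpressing SNAP-tagged receptor and the green cADDis biosensor, imaged live at 37°C. Responses are reported ensemble, expression-matched against wild-type deciles with extremes trimmed, or within each variant's own surface deciles.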

[3] = test system: wild-type and variant SNAP-GIPR; assay: Constitutive and agonist-mediated internalization, reversible SNAP-tag labelling, AD293 cells; assay type: cell-based, human; set-up: key to Internalisation, Vehicle / Internalisation, +GIP / Internalisation, GIP-only: % internalization: residual fluorescence after Mesna vs pre-Mesna; Surface expression: unit not given here; settings: Mean; for +GIP internalisation (100 nM) / GIP-specific internalisation (100 nM) / Constitutive internalisation (100 nM) / Surface expression: Fig 4E; for +GIP internalisation (100 nM) / GIP-specific internalisation (100 nM): GIP 100 nM; for Internalisation, +GIP / Internalisation, GIP-only / Internalisation, Vehicle: Fig S4C, AD293
In short: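 Percentage internalization calculated as specific SNAP fluorescence remaining after 10 min Mesna exposure, relative to pre-Mesna signal, imaged in TNE buffer (pH 8.6).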

[4] = test system: wild-type and variant SNAP-GIPR in Gipr-/- mouse islets; assay: Surface SNAP-GIPR expression in pancreatic islets; assay type: cell-based, human; settings: Fig 6B
Description: Islets were purified from Gipr^−/− mice as described in the “Islet isolation and culture” section. Islets were transduced with adenoviral wild-type or variant SNAP-tagged GIPR constructs (VectorBuilder) per the manufacturer’s instructions. All variants were tested in parallel on each occasion to control for transduction efficiency. Twenty-four hours posttransduction, whole, intact islets were labeled with SNAP-Surface Alexa Fluor 647 for 15 min at 37°C. Following labeling, the islets were placed in a drop of PBS in the center of a glass-bottom MatTek dish and imaged on a Zeiss LSM 780 inverted confocal microscope fitted with a 63X/1.4 NA oil immersion objective. Receptor surface levels were quantified in Fiji using a macro using full width at half maximum (FWHM) designed by the Facility for Imaging and Light Microscopy (FILM) at Imperial College London and expressed relative to wild-type GIPR. In additional experiments, islets transduced as above and labeled with SNAP-Surface-647 were fixed in 4% paraformaldehyde, permeabilized in 0.5% (v/v) Triton X-100 in PBS (15 min), washed once with PBS and incubated in blocking buffer (PBS and 1% BSA) for 1 hour, and incubated overnight at 4°C in primary antibodies against insulin (1:50; Dako IR002, Agilent Technologies) and glucagon (1:500; G2654, Sigma-Aldrich) in blocking buffer.

[5] = test system: wild-type and variant SNAP-GIPR in Gipr-/- mouse islets; assay: Glucagon secretion from Gipr-/- mouse islets transduced with GIPR adenoviruses; assay type: cell-based; settings: Fig S6C, Gipr-/- mouse islets
Description: Isolated islets used for insulin secretion assays were treated in 1.5-ml microcentrifuge tubes. Eight-ten islets were used per well with two-three technical replicates per condition. […] At the end of the treatment, supernatants containing the secreted insulin or glucagon were collected, centrifuged at 1000g for 5 min, and transferred to fresh tubes. […] The lysates were sonicated 3× for 10 s in a water bath and centrifuged at 10,000g for 10 min, and the supernatants were collected. The samples were stored at −20°C until the insulin or glucagon concentrations were determined using an Insulin Ultra-Sensitive HTRF Assay kit (62IN2PEG, Revvity) or an HTRF Glucagon Detection Kit (62CGLPEG, Revvity) respectively, according to the manufacturer’s instructions. GraphPad Prism 9.0 was used for the generation of the standard curve and sample concentration extrapolation. The total insulin or glucagon content was calculated by adding the secreted insulin to the insulin content of the lysates, and secretion was reported as the percentage release of total. The percent secretion of islets treated with agonist was normalized to that of islets treated with vehicle and reported as a fold change.

| Molecule | AD293 100 pM HTRF [1] | AD293 100 nM HTRF [1] | AD293 100 pM cADDis [2] | AD293 100 nM cADDis [2] | +GIP internalisation (100 nM) [3] | GIP-specific internalisation (100 nM) [3] | Constitutive internalisation (100 nM) [3] | Surface expression [3] | Internalisation, +GIP [3] | Internalisation, GIP-only [3] | Internalisation, Vehicle [3] | Surface SNAP-GIPR expression in pancreatic islets ([4]; replicate 1) | Surface SNAP-GIPR expression in pancreatic islets ([4]; replicate 2) | Surface SNAP-GIPR expression in pancreatic islets ([4]; replicate 3) | Surface SNAP-GIPR expression in pancreatic islets ([4]; replicate 4) | Surface SNAP-GIPR expression in pancreatic islets ([4]; replicate 5) | Glucagon secretion, ratio G0.5 + GIP / G0.5 ([5]; replicate 1) | Glucagon secretion, ratio G0.5 + GIP / G0.5 ([5]; replicate 2) | Glucagon secretion, ratio G0.5 + GIP / G0.5 ([5]; replicate 4) | Glucagon secretion, ratio G0.5 + GIP / G0.5 ([5]; replicate 3) |
| --- | --- | --- | --- | --- | --- | --- | --- | --- | --- | --- | --- | --- | --- | --- | --- | --- | --- | --- | --- | --- |
| E354Q (protein) RAETGSKGQTAGELYQRWERYRRECQETLAAAEPPSGLACNGSFDMYVCWDYAAPNATARASCPWYLPWHHHVAAGFVLRQCGSDGQWGLWRDHTQCENPEKNEAFLDQRLILERLQVMYTVGYSLSLATLLLALLILSLFRRLHCTRNYIHINLFTSFMLRAAAILSRDRLLPRPGPYLGDQALALWNQALAACRTAQIVTQYCVGANYTWLLVEGVYLHSLLVLVGGSEEGHFRYYLLLGWGAPALFVIPWVIVRYLYENTQCWERNEVKAIWWIIRTPILMTILINFLIFIRILGILLSKLRTRQMRCRDYRLRLARSTLTLVPLLGVHQVVFAPVTEEQARGALRFAKLGFEIFLSSFQGFLVSVLYCFINKEVQSEIRRGWHHCRLRRSLGEEQRQLPERAFRALPSGSGPGEVPTSRGLSSGTLPGPGNEASRELESYC | 4.703 | 1.4229 | 41.2353 | 37.94 | 0.4635 | 0.1217 | 0.3419 | 0.6766 | 68.6221 | 17.9918 | 50.6302 | 1.913 | 1.476 | 1.8301 | 2.1125 | 2.267 | 0.6783 | 1.215 | 1.495 |  |
| E288G (protein) RAETGSKGQTAGELYQRWERYRRECQETLAAAEPPSGLACNGSFDMYVCWDYAAPNATARASCPWYLPWHHHVAAGFVLRQCGSDGQWGLWRDHTQCENPEKNEAFLDQRLILERLQVMYTVGYSLSLATLLLALLILSLFRRLHCTRNYIHINLFTSFMLRAAAILSRDRLLPRPGPYLGDQALALWNQALAACRTAQIVTQYCVGANYTWLLVEGVYLHSLLVLVGGSEEGHFRYYLLLGWGAPALFVIPWVIVRYLYENTQCWGRNEVKAIWWIIRTPILMTILINFLIFIRILGILLSKLRTRQMRCRDYRLRLARSTLTLVPLLGVHEVVFAPVTEEQARGALRFAKLGFEIFLSSFQGFLVSVLYCFINKEVQSEIRRGWHHCRLRRSLGEEQRQLPERAFRALPSGSGPGEVPTSRGLSSGTLPGPGNEASRELESYC | 0.007216 | 0.3648 | 0.802 | 24.23 | 0.06598 | 0.002144 | 0.06383 | 0.1099 | 59.0204 | 2.581 | 56.4393 | 0.1066 | 0.6008 | 0.01404 | -0.2745 | -0.1674 | 2.014 | 1.482 | 1.525 | 1.8204 |
| R190Q (protein, left off: SNAP-tag, end not stated, kept) RAETGSKGQTAGELYQRWERYRRECQETLAAAEPPSGLACNGSFDMYVCWDYAAPNATARASCPWYLPWHHHVAAGFVLRQCGSDGQWGLWRDHTQCENPEKNEAFLDQRLILERLQVMYTVGYSLSLATLLLALLILSLFRRLHCTRNYIHINLFTSFMLRAAAILSQDRLLPRPGPYLGDQALALWNQALAACRTAQIVTQYCVGANYTWLLVEGVYLHSLLVLVGGSEEGHFRYYLLLGWGAPALFVIPWVIVRYLYENTQCWERNEVKAIWWIIRTPILMTILINFLIFIRILGILLSKLRTRQMRCRDYRLRLARSTLTLVPLLGVHEVVFAPVTEEQARGALRFAKLGFEIFLSSFQGFLVSVLYCFINKEVQSEIRRGWHHCRLRRSLGEEQRQLPERAFRALPSGSGPGEVPTSRGLSSGTLPGPGNEASRELESYC | 0.272 | 0.2205 | -0.9408 | 9.541 | 0.1813 | -0.007972 | 0.1892 | 0.3493 | 51.2548 | -3.738 | 54.9926 | 0.6777 | 0.189 | 0.9549 | -0.2055 | -0.1767 | 0.4628 | 1.4505 | 1.147 | 0.8994 |
| R101H (protein) RAETGSKGQTAGELYQRWERYRRECQETLAAAEPPSGLACNGSFDMYVCWDYAAPNATARASCPWYLPWHHHVAAGFVLHQCGSDGQWGLWRDHTQCENPEKNEAFLDQRLILERLQVMYTVGYSLSLATLLLALLILSLFRRLHCTRNYIHINLFTSFMLRAAAILSRDRLLPRPGPYLGDQALALWNQALAACRTAQIVTQYCVGANYTWLLVEGVYLHSLLVLVGGSEEGHFRYYLLLGWGAPALFVIPWVIVRYLYENTQCWERNEVKAIWWIIRTPILMTILINFLIFIRILGILLSKLRTRQMRCRDYRLRLARSTLTLVPLLGVHEVVFAPVTEEQARGALRFAKLGFEIFLSSFQGFLVSVLYCFINKEVQSEIRRGWHHCRLRRSLGEEQRQLPERAFRALPSGSGPGEVPTSRGLSSGTLPGPGNEASRELESYC | -0.001017 | 0.2474 | 6.465 | 17.19 | 0.1328 | 0.01912 | 0.1137 | 0.2712 | 49.9522 | 4.89 | 45.062 | 0.3446 | 0.4042 | 0.02787 | 0.08995 | -0.05398 | 1.2225 | 1.611 | 0.8233 | 0.9333 |
